Among the data in paper PMC7907450 are Kd values, retold here.

pKd: −log10 of the molar value.

Series [1] deals with 70S ribosome pretranslocation complex, deacylated tRNAfMet in P site, A site. The series is described as follows: nitrocellulose filter binding, koff/kon. As to conditions: 7 mM Mg2+, aminoacylated with fMet-Val dipeptide, MST: buffer TAKM7 (7 mM Mg2+; full composition not in material), 30 min at 37 C, A-site peptidyl-tRNA: buffer TAKM with 7-20 mM Mg2+.
For series [2], the system named is 30S ribosomal subunit initiation complex with IF1, IF2, IF3 and BPY-Met-tRNAfMet. As to the kind of experiment: MST. As to conditions: MST: buffer TAKM7 (7 mM Mg2+; full composition not in material), 30 min at 37 C, A-site peptidyl-tRNA: buffer TAKM with 7-20 mM Mg2+, nitrocellulose ….
The test system of series [3] is 30S ribosomal subunit initiation complex with IF1, IF2, IF3 and elongator BPY-Phe-tRNAPhe. As to the kind of experiment: MST. To be noted: 60 uM amicoumacin A, MST: buffer TAKM7 (7 mM Mg2+; full composition not in material), 30 min at 37 C, A-site peptidyl-tRNA: buffer TAKM with 7-20 mM Mg2+, nitrocellulose ….
In series [4] the test system is 30S ribosomal subunit initiation complex without IF3 (IF1, IF2, BPY-Met-tRNAfMet). As to the kind of experiment: MST. As to conditions: MST: buffer TAKM7 (7 mM Mg2+; full composition not in material), 30 min at 37 C, A-site peptidyl-tRNA: buffer TAKM with 7-20 mM Mg2+, nitrocellulose ….

What is called pKd is the Kd on a negative log10 scale, so that one unit is a factor of ten. Lower therefore signals a high Kd. As to fMet-[14C]Val-tRNAVal, the pKd in series [1] (30 uM amicoumacin A) is 6.34; in series [1] (no antibiotic), 6.16.
As to model mRNA AUG (Met-Phe), the pKd was 6.25 in series [2] (30 uM edeine); 6.77 in series [2] (60 uM amicoumacin A); 7.23 in series [2] (60 uM kasugamycin); 7.74 in series [2] (no antibiotic); 6.03 in series [3]; 7.11 in series [4] (no IF3, amicoumacin A). Also, the negative logarithm of the Kd (pKd) in series [4] (no IF3, no antibiotic) was 5.89.
For model mRNA UUC start codon, the negative logarithm of the Kd (pKd) in series [2] (60 uM amicoumacin A) is 6.23; in series [4] (no IF3, amicoumacin A) it was 6.23; in series [4] (no IF3, no antibiotic), 5.90.
